Laboratory results: article PMC8906540 (RNA, 2022)

Molecular target: the molecule itself
Test: SEC

B1: YloC protein of Bacillus subtilis, purified, 8×His-Sumo tag removed (enzyme, UniProt O34441 1-291, looked up)
chain: MIRSMTGFGSASKTQDDLSVSVELKSVNYRFKEVNARLPRPLLYFEDKLKQTILQHIQRGRIELFVSVDSDMLVEKRLEIDWPLLDEFVAAARDMKKRYQLSAEPDVMDFFKLDHVVQVHEEQTQNDKLEALIIDAAEEAVKGLCEMREKEGLLLAKDCLMHIDQLEELVRETELLAADVVSRYRERLYARIKEWTEDVLDESRLVTECAIFADRSDITEEITRLKSHFAQFRDILASGGAVGRKLDFLVQELNREANTIGSKANDHQITKLVVEMKSSIEKIKEQVQNIE
- stoichiometry N: ~6
